The target in series [1] is T1, synthetic peptide substrate containing the Swedish KM→NL mutation (SEVNLDAEFR).
T1 chain: SEVNLDAEFR

Series [2] addresses T2, synthetic peptide substrate containing the wild-type APP β-secretase site (SEVKMDAEFR).
T2 chain: SEVKMDAEFR

B1: Hu-Asp2(b) expressed in CHO cells (protein)
chain: TQHGIRLPLRSGLGGAPLGLRLPRETDEEPEEPGRRGSFVEMVDNLRGKSGQGYYVEMTVGSPPQTLNILVDTGSSNFAVGAAPHPFLHRYYQRQLSSTYRDLRKGVYVPYTQGKWEGELGTDLVSIPHGPNVTVRANIAAITESDKFFINGSNWEGILGLAYAEIARLCGAGFPLNQSEVLASVGGSMIIGGIDHSLYTGSLWYTPIRREWYYEVIIVRVEINGQDLKMDCKEYNYDKSIVDSGTTNLRLPKKVFEAAVKSIKAASSTEKFPDGFWLGEQLVCWQAGTTPWNIFPVISLYLMGEVTNQSFRITILPQQYLRPVEDVATSQDDCYKFAISQSSTGTVMGAVIMEGFYVVFDRARKRIGFAVSACHVHDEFRTAAVEGPFVTLDMEDCGYNIPQTDESTLMTIAYVMAAICALFMLPLCLMVCQWRCLRCLRQQHDDFADDISLLK
Turning to B1, the “proteolysis of peptide substrate (RP-HPLC)” value in series [1] was “also cleaves the Swedish β-secretase peptide in proteolysis assays using identical assay conditions”.

B2: Recombinant human Asp2(a) prepared in CHO cells (protein)
chain: ETDEEPEEPGRRGSFVEMVDNLRGKSGQGYYVEMTVGSPPQTLNILVDTGSSNFAVGAAPHPFLHRYYQRQLSSTYRDLRKGVYVPYTQGKWEGELGTDLVSIPHGPNVTVRANIAAITESDKFFINGSNWEGILGLAYAEIARPDDSLEPFFDSLVKQTHVPNLFSLHLCGAGFPLNQSEVLASVGGSMIIGGIDHSLYTGSLWYTPIRREWYYEVIIVRVEINGQDLKMDCKEYNYDKSIVDSGTTNLRLPKKVFEAAVKSIKAASSTEKFPDGFWLGEQLVCWQAGTTPWNIFPVISLYLMGEVTNQSFRITILPQQYLRPVEDVATSQDDCYKFAISQSSTGTVMGAVIMEGFYVVFDRARKRIGFAVSACHVHDEFRTAAVEGPFVTLDMEDCGYNIPQTDESTLMTIAYVMAAICALFMLPLCLMVCQWRCLRCLRQQHDDFADDISLLK
Consider B2, for which, in series [2], the “proteolysis of peptide substrate (percent hydrolysis by RP-HPLC)” value was “Maximal proteolysis was seen with the Swedigh β-secretase peptide, which, after 6 hours, was about 10-fold higher than wild type APP”. For the same protein, in series [1], the “proteolysis of peptide substrate (percent hydrolysis by RP-HPLC), Swedish peptide against wild type after 6 hours” value is “about 10-fold higher than wild type APP”.

The values above are taken from patent publication US20030077226.
